As usually defined, the Kd is the equilibrium constant for the complex coming apart. A higher Kd goes with a looser complex. By koff is commonly meant the first-order rate constant of dissociation. Read a low koff as slow dissociation. By kon is commonly meant the second-order rate constant of association.

The values below come from US20230235040A1 (ALMIRALL S A, published 2023).

In test [1] the target is T1, hu-IL-36β (human IL-36β, N-terminally truncated active form R5-E157) (human).
T1 construct: Purification tag cleaved off; Biotinylated where captured; also called hu-IL-36b
T1 chain: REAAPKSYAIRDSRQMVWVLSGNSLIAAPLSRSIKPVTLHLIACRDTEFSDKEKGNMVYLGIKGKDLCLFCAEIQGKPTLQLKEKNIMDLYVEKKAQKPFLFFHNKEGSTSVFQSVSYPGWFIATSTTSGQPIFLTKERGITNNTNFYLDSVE
Briefly: SPR (Biacore 8K), biotinylated IL-36 captured on CAP chip, Fab injected, 25°C. Here is the method: (§1) Briefly, a 1:4 dilution of Biotin CAPture Reagent (GE Healthcare, Chicago, Ill., USA)) into HBS-EP buffer (GE Healthcare, Chicago, Ill., USA; 0.01 M HEPES pH 7.4, 0.15 M NaCl, 3 mM EDTA, 0.005% Surfactant P20) was applied to a CAP sensor chip at 2 μL/min flow rate. […] FC1 was kept as a reference. […] The sensorgram was recorded and subject to reference and buffer subtraction before data analysis with the BIACORE® 8K Evaluation Software (GE Healthcare, Chicago, Ill., USA; version 1.1.1.7442). Association rates (kₒₙ) and dissociation rates (koff) were calculated using a simple one-to-one Langmuir binding model. The equilibrium dissociation constant (KD) was calculated as the ratio of koff/kₒₙ.
A general note: In SPR one partner is held on a chip, and binding of the other changes the refractive index at the surface.

The target of test [2] is T1, hu-IL-36β (human IL-36β, N-terminally …). Briefly: SPR (Biacore 8K), biotinylated IL-36 captured on CAP chip, Fab injected, 37°C. The protocol:
as §1

For test [3], the target named is T2, hu-IL-36γ (human IL-36γ, N-terminally truncated active form S18-D169) (human, UniProt Q9NZH8 18-169).
T2 construct: Purification tag cleaved off; Biotinylated where captured; also called hu-IL-36g
T2 sequence: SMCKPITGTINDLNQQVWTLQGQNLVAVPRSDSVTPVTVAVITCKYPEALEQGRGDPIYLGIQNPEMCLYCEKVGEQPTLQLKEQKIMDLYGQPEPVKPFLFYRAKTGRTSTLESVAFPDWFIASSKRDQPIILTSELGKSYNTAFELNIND
Briefly: SPR (Biacore 8K), biotinylated hu-IL-36 captured on CAP chip, Fab injected, 37°C. Here is the method:
(§2) Briefly, a 1:4 dilution of Biotin CAPture Reagent (GE) into HBS-EP buffer (0.01 M HEPES pH 7.4, 0.15 M NaCl, 3 mM EDTA, 0.005% Surfactant P20) was applied to a CAP sensor chip at 2 uL/min flow rate. For kinetics measurements, 3 nM biotinylated human IL-36α and human IL-36γ was captured at 10 uL/min to achieve ˜50 response units in the second flow cell (FC2). FC1 was kept as a reference. […] The sensorgram was recorded and subject to reference and buffer subtraction before evaluating by BIACORE® 8K Evaluation Software (version 1.1.1.7442). Association rates (kₒₙ) and dissociation rates (koff) were calculated using a simple one-to-one Langmuir binding model.

For test [4], the target named is T3, hu-IL-36α (human IL-36α, N-terminally truncated active form K6-F158) (human, UniProt Q9UHA7 6-158).
T3 construct: Purification tag cleaved off; Biotinylated where captured (SPR, some ELISAs); also called hu-IL-36a
T3 sequence: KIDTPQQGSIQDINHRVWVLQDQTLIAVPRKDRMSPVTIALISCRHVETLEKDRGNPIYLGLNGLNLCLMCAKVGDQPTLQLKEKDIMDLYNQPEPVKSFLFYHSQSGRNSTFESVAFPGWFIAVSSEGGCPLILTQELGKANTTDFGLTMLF
The description is as above. Here is the method: as §2

Test [5] deals with T3, hu-IL-36α (human IL-36α, N-terminally …). Briefly: phage competition ELISA: Fab on phage, soluble hu-IL-36α titrated against coated hu-IL-36α. Here is the method: (§3) Selected phages with top binding signal were purified to perform phage competition ELISA. The optimal phage concentration was incubated with serially-diluted human IL-36α or human IL-36γ in ELISA buffer in NUNC F plate for two hours. 80 μL of the mixture was transferred to human IL-36α or human IL-36γ coated wells for 15 min to capture unbound phage. The plate was washed with wash buffer (0.05% TWEEN®20 in PBS), and HRP-conjugated anti-M13 antibody (Sino biological, Cat #11973-MM05-H-50) was added in ELISA buffer for 30 min. The plates were washed and developed as described above. The absorbance at 450 nm was plotted as a function of antigen concentration in solution to determine phage IC50.
For orientation: In an ELISA, binding on a coated surface is turned into a signal by an enzyme label.

The target of test [6] is T2, hu-IL-36γ (human IL-36γ, N-terminally …). Briefly: phage competition ELISA: Fab on phage, soluble hu-IL-36γ titrated against coated hu-IL-36γ. The protocol: as §3
For test [7] the target is unchanged. Briefly: cell-based or functional assay.
In test [8] the target is T3, hu-IL-36α (human IL-36α, N-terminally …). Briefly: cell-based or functional assay.
For test [9], the target named is T2, hu-IL-36γ (human IL-36γ, N-terminally …). Briefly: SPR (Biacore 8K), biotinylated IL-36 captured on CAP chip, Fab injected, 25°C. The protocol:
as §1

Test [10] has as its target T3, hu-IL-36α (human IL-36α, N-terminally …). Described as above. Here is the method:
as §1

Test [11] deals with T2, hu-IL-36γ (human IL-36γ, N-terminally …). Briefly: SPR (Biacore 8K), biotinylated IL-36 captured on CAP chip, Fab injected, 37°C. The protocol: as §1
For test [12], the target named is T3, hu-IL-36α (human IL-36α, N-terminally …). Described as above. Here is the method: as §1
Test [13] deals with T1, hu-IL-36β (human IL-36β, N-terminally …). Briefly: ELISA, yeast Fab supernatant, anti-Fab-HRP.
For test [14] the target is unchanged. Briefly: cell-based or functional assay.
Test [15] has the same target. Briefly: cell-based or functional assay.

Residue numbers refer to the chain shown, from its start.

B1: mAb6.0 Fab (purified, lysyl-C cleaved from recombinant IgG1) (Fab, V domains shown)
VH: QLQLQESGPGLVKPSETLSLTCTVSGGSITSSNYYWGWIRQPPGKGLEWIGSIDYTGSTYYNPSLKSRVTISVDTSKNQFSLKLSSVTAADTAVYYCARGKYYETYLGFDVWGQGTLVTVSS
VL: QSVLTQPPSVSGAPGQRVTISCTGSSSNIGAGYDVHWYQQLPGTAPKLLIYGNTNRPSGVPDRFSGSKSGTSASLAITGLQAEDEADYYCQSYDISLSGWVFGGGTKLTVL
notes: also called purified mAb6.0 Fab
In test [1], B1 yielded a Kd of 1790 pM, a koff of 7.23e-05 s⁻¹ and an on-rate constant (kon) of 40400 M⁻¹ s⁻¹. For the same molecule, in test [2], the Kd is 1930 pM, the koff came out at 0.000118 s⁻¹ and the kon stood at 61100 M⁻¹ s⁻¹.

B2: mAb2 Fab (Fab, V domains shown)
VH: ELQLQESGPGLVKPSETLSLTCTVSGGSISTSSYYWGWIRQPPGKGLEWIGSIYYTGNTYYNPSLKSRVTISVDTSKNQFSLKLSSVTAADTAVYYCARVRYGVGVPRYFDPWGQGTLVTVSS
VL: B1 VL with Q1E, G32H, T54D, I95Y, W100Y
For the molecule B2, the “apparent Kd (pooled screen)” value stood at 410 pM in test [3] and 230 pM in test [4]. For the same molecule, the figures for the “apparent koff (pooled screen)” value in test [3] and in test [4] were 0.000574 s⁻¹ and 0.000264 s⁻¹, respectively. Moreover, the “apparent kon (pooled screen)” value in test [3] amounted to 1.39e+06 M⁻¹ s⁻¹; in test [4], 1.16e+06 M⁻¹ s⁻¹. Also, the “apparent IC50 (pooled screen)” value in test [5] was 1200 pM; in test [6], 3200 pM. The results for the “IC50, IL-36-stimulated IL-8 secretion by HaCat cells” value (“IC50 … by HaCat cells” below) in test [7] and in test [8] were 960 pM and 300 pM, respectively.

B3: mAb2.10 Fab (Fab, V domains shown)
VH: B2 VH with T31D, N58E, N62A, Y109H
VL: B1 VL with Q1E, G32H, T54D, I95Y, W100Y
notes: Recombinant Fab with 8xHis tag (Expi293F)
With B3, in test [3], binding was characterised by a dissociation constant (Kd) of 130 pM, the koff worked out at 0.00018 s⁻¹ and the kon was 1.37e+06 M⁻¹ s⁻¹. In addition, in [4], the Kd came to 150 pM, the koff stood at 0.000222 s⁻¹ and the on-rate constant (kon) turned out to be 1.49e+06 M⁻¹ s⁻¹. Besides, the “IC50 … by HaCat cells” value in [7] was found to be 1090 pM. For the same molecule, in test [8], the “IC50 … by HaCat cells” value was found to be 380 pM.

B4: mAb2.11 Fab (Fab, V domains shown)
VH: B2 VH with T31E, N58E, N62A, V100L
VL: B1 VL with Q1E, G32H, T54D, I95Y, W100Y
notes: as for B3
For the molecule B4, in [3], the Kd amounted to 110 pM, the koff is 0.000214 s⁻¹ and the kon was determined as 1.92e+06 M⁻¹ s⁻¹. In test [4], this molecule gave a Kd of 130 pM, a koff of 0.000244 s⁻¹ and a kon of 1.91e+06 M⁻¹ s⁻¹. Besides, the “IC50 … by HaCat cells” value in [7] is 1050 pM. In addition, in test [8], the “IC50 … by HaCat cells” value was 420 pM.

B5: mAb2.0 Fab (purified, lysyl-C cleaved from recombinant IgG1) (Fab, V domains shown)
VH: B2 VH with E1Q
VL: B1 VL with G32H, T54D, I95Y, W100Y
notes: also called purified mAb2.0 Fab
Consider B5, for which the Kd in test [9] came to 980 pM; in test [10], 1200 pM; in [11], 1610 pM; in [12], 300 pM. Besides, the off-rate constant (koff) is 0.000358 s⁻¹ in [9], 0.000413 s⁻¹ in test [10], 0.00108 s⁻¹ in test [11] and 0.000502 s⁻¹ in test [12]. The kon in test [9] is 366000 M⁻¹ s⁻¹; in [10], 345000 M⁻¹ s⁻¹; in test [11] it was 671000 M⁻¹ s⁻¹; in test [12] it was 1.69e+06 M⁻¹ s⁻¹.

B6: mAb8.0 Fab (yeast clone culture supernatant) (Fab, V domains shown)
VH: QVQLVQSGAEVKKPGSSVKVSCKASGGTFSNYAISWVRQAPGQGLEWMGGILPILGTVDYAQKFQGRVTITADESTSTAYMELSSLRSEDTAVYYCAREPWYRLGAFDVWGQGTLVTVSS
VL: DIQMTQSPSSLSASVGDRVTITCRASQTIYKYLNWYQQKPGKAPKLLIYAASSLQSGVPSRFSGSGSGTDFTLTISSLQPEDFATYYCQQYSSIPYTFGQGTKVEIK
notes: Human Fab secreted by the yeast clone, not purified
In the case of B6, in [13], the “ELISA OD450” value was 2.63 OD450. Besides, in test [14], the “% Inhibition, HEK-Blue IL-36R SEAP reporter assay” value is 85%.

B7: mAb8.0 recombinant human IgG1 (antibody, V domains shown)
VH: B6 VH
VL: B6 VL
Regarding B7, in test [15], the “IC50, HEK-Blue IL-36R SEAP reporter assay” value turned out to be 340 pM.
